{
  "source": "the RNAGym collection of RNA variant scans (doi:10.1101/gr.219683.116)",
  "parents": {"B1": {"name": "mRNA-splicing (parent)", "chain": "AGUUGCUGCUGGGAGCUCCAGCACAGUGAAAUGGACAGAAGGGCAGAGCAA"}},
  "data": [
    {"variants_of": "B1", "experiment": "exon inclusion enrichment index; higher = more inclusion; WT1 exon 5 minigene, HEK293", "values": [
      {"variant": "AGUUACUACCGGGAGCUCCAGCACAGUGAAAUGGACAGAAGGGCAGAGCAA", "note": "[G5A G8A U10C]", "exon inclusion enrichment index": 1.77},
      {"variant": "AGUUAUAUAUGGGAGCUCCAGCACAGUGAAACGGACAGAAGGGCAGAGCAA", "note": "[G5A C6U U7A G8U C9A U32C]", "exon inclusion enrichment index": 0.14},
      {"variant": "AGUUAUAUAUGGGAGCUCCAGCACAGUGAAAAGGACAGAAGGGCAGAGCAA", "note": "[G5A C6U U7A G8U C9A U32A]", "exon inclusion enrichment index": 0.0571},
      {"variant": "AGUUAUAUAUGGGAGCUCCAGCACAGUGAAAGGGACAGAAGGGCAGAGCAA", "note": "[G5A C6U U7A G8U C9A U32G]", "exon inclusion enrichment index": 0.0013},
      {"variant": "AGUUAUCGCCGGGAGCUCCAGCACAGUGAAAUGGACAGAAGGGCAGAGCAA", "note": "[G5A C6U U7C U10C]", "exon inclusion enrichment index": 3.3},
      {"variant": "AGUUACUCCCGGGAGCUCCAGCACAGUGAAAUGGACAGAAGGGCAGAGCAA", "note": "[G5A G8C U10C]", "exon inclusion enrichment index": 1.52},
      {"variant": "AGUUACAUCCGGGAGCUCCAGCACAGUGAAAUGGACAGAAGGGCAGAGCAA", "note": "[G5A U7A G8U U10C]", "exon inclusion enrichment index": 1.96},
      {"variant": "AGUUACUUCCGGGAGCUCCAGCACAGUGAAAUGGACAGAAGGGCAGAGCAA", "note": "[G5A G8U U10C]", "exon inclusion enrichment index": 1.78},
      {"variant": "AGUUACACCCGGGAGCUCCAGCACAGUGAAAUGGACAGAAGGGCAGAGCAA", "note": "[G5A U7A G8C U10C]", "exon inclusion enrichment index": 1.42},
      {"variant": "AGUUACCGAUGGGAGCUCCAGCACAGUGAAAUGGACAGAAGGGCAGAGCAA", "note": "[G5A U7C C9A]", "exon inclusion enrichment index": 2.07},
      {"variant": "AGUUACCAAAGGGAGCUCCAGCACAGUGAAAUGGACAGAAGGGCAGAGCAA", "note": "[G5A U7C G8A C9A U10A]", "exon inclusion enrichment index": 0.384},
      {"variant": "AGUUACCAACGGGAGCUCCAGCACAGUGAAAUGGACAGAAGGGCAGAGCAA", "note": "[G5A U7C G8A C9A U10C]", "exon inclusion enrichment index": 2},
      {"variant": "AGUUACCAAGGGGAGCUCCAGCACAGUGAAAUGGACAGAAGGGCAGAGCAA", "note": "[G5A U7C G8A C9A U10G]", "exon inclusion enrichment index": 0.509},
      {"variant": "AGUUAUCCAUGGGAGCUCCAGCACAGUGAAAUGGACAGAAGGGCAGAGCAA", "note": "[G5A C6U U7C G8C C9A]", "exon inclusion enrichment index": 1.04},
      {"variant": "AGUUAUAUAUGGGAGCUCCAGCACAGAUAAAUGGACAGAAGGGCAGAGCAA", "note": "[G5A C6U U7A G8U C9A U27A G28U]", "exon inclusion enrichment index": 0.0109},
      {"variant": "AGUUAUAUAUGGGAGCUCCAGCACAGAAAAAUGGACAGAAGGGCAGAGCAA", "note": "[G5A C6U U7A G8U C9A U27A G28A]", "exon inclusion enrichment index": 0.065},
      {"variant": "AGUUAUAUAUGGGAGCUCCAGCACAGACAAAUGGACAGAAGGGCAGAGCAA", "note": "[G5A C6U U7A G8U C9A U27A G28C]", "exon inclusion enrichment index": 0.126},
      {"variant": "AGUUAUAUCAGGGAGCUCCAGCACAGUGAAAUGGACAGAAGGGCAGAGCAA", "note": "[G5A C6U U7A G8U U10A]", "exon inclusion enrichment index": 0.0329},
      {"variant": "AGUUAUAUCGGGGAGCUCCAGCACAGUGAAAUGGACAGAAGGGCAGAGCAA", "note": "[G5A C6U U7A G8U U10G]", "exon inclusion enrichment index": 0.317},
      {"variant": "AGUUAUAUCCGGGAGCUCCAGCACAGUGAAAUGGACAGAAGGGCAGAGCAA", "note": "[G5A C6U U7A G8U U10C]", "exon inclusion enrichment index": 1.03},
      {"variant": "AGUUAUAUGCGGGAGCUCCAGCACAGUGAAAUGGACAGAAGGGCAGAGCAA", "note": "[G5A C6U U7A G8U C9G U10C]", "exon inclusion enrichment index": 0.339},
      {"variant": "AGUUAUAUGAGGGAGCUCCAGCACAGUGAAAUGGACAGAAGGGCAGAGCAA", "note": "[G5A C6U U7A G8U C9G U10A]", "exon inclusion enrichment index": 0.0375},
      {"variant": "AGUUAUAUGGGGGAGCUCCAGCACAGUGAAAUGGACAGAAGGGCAGAGCAA", "note": "[G5A C6U U7A G8U C9G U10G]", "exon inclusion enrichment index": 0.0235},
      {"variant": "AGUUACUGAUGGGAGCUCCAGCACAGUGAAAUGGACAGAAGGGCAGAGCAA", "note": "[G5A C9A]", "exon inclusion enrichment index": 0.851},
      {"variant": "AGUUACAGAAGGGAGCUCCAGCACAGUGAAAUGGACAGAAGGGCAGAGCAA", "note": "[G5A U7A C9A U10A]", "exon inclusion enrichment index": 0.318},
      {"variant": "AGUUACAGAUGGGAGCUCCAGCACAGUGAAAUGGACAGAAGGGCAGAGCAA", "note": "[G5A U7A C9A]", "exon inclusion enrichment index": 0.664},
      {"variant": "AGUUAUCUAUGGGAGCUCCAGCACAGUGAAAUGGACAGAAGGGCAGAGCAA", "note": "[G5A C6U U7C G8U C9A]", "exon inclusion enrichment index": 0.249},
      {"variant": "AGUUACCACUGGGAGCUCCAGCACAGUGAAAUGGACAGAAGGGCAGAGCAA", "note": "[G5A U7C G8A]", "exon inclusion enrichment index": 1.09},
      {"variant": "AGUUAUAUUUGGGAGCUCCAGCACAGUGAAAUGGACAGAAGGGCAGAGCAA", "note": "[G5A C6U U7A G8U C9U]", "exon inclusion enrichment index": 0.0721},
      {"variant": "AGUUAUAUGUGGGAGCUCCAGCACAGUGAAAUGGACAGAAGGGCAGAGCAA", "note": "[G5A C6U U7A G8U C9G]", "exon inclusion enrichment index": 0.0579},
      {"variant": "AGUUACCAGGGGGAGCUCCAGCACAGUGAAAUGGACAGAAGGGCAGAGCAA", "note": "[G5A U7C G8A C9G U10G]", "exon inclusion enrichment index": 0.236},
      {"variant": "AGUUACCAGCGGGAGCUCCAGCACAGUGAAAUGGACAGAAGGGCAGAGCAA", "note": "[G5A U7C G8A C9G U10C]", "exon inclusion enrichment index": 1.65},
      {"variant": "AGUUACCAGAGGGAGCUCCAGCACAGUGAAAUGGACAGAAGGGCAGAGCAA", "note": "[G5A U7C G8A C9G U10A]", "exon inclusion enrichment index": 0.989},
      {"variant": "AGUUAUAUAUGGGAGCCUCAGCACAGUGAAAUGGACAGAAGGGCAGAGCAA", "note": "[G5A C6U U7A G8U C9A U17C C18U]", "exon inclusion enrichment index": 0.0327},
      {"variant": "AGUUAUAUAUGGGAGCCACAGCACAGUGAAAUGGACAGAAGGGCAGAGCAA", "note": "[G5A C6U U7A G8U C9A U17C C18A]", "exon inclusion enrichment index": 0.0363},
      {"variant": "AGUUAUAUAUGGGAGCCGCAGCACAGUGAAAUGGACAGAAGGGCAGAGCAA", "note": "[G5A C6U U7A G8U C9A U17C C18G]", "exon inclusion enrichment index": 0.0591},
      {"variant": "AGUUAUCGACGGGAGCUCCAGCACAGUGAAAUGGACAGAAGGGCAGAGCAA", "note": "[G5A C6U U7C C9A U10C]", "exon inclusion enrichment index": 2.91},
      {"variant": "AGUUAUAUAUGGGAGCGUCAGCACAGUGAAAUGGACAGAAGGGCAGAGCAA", "note": "[G5A C6U U7A G8U C9A U17G C18U]", "exon inclusion enrichment index": 0.0294},
      {"variant": "AGUUAUAUAUGGGAGCGGCAGCACAGUGAAAUGGACAGAAGGGCAGAGCAA", "note": "[G5A C6U U7A G8U C9A U17G C18G]", "exon inclusion enrichment index": 0.0481},
      {"variant": "AGUUAUAUAUGGGAGCGACAGCACAGUGAAAUGGACAGAAGGGCAGAGCAA", "note": "[G5A C6U U7A G8U C9A U17G C18A]", "exon inclusion enrichment index": 0.0489},
      {"variant": "AGUUAUAUAGGGGAGCUCCAGCACAGUGAAAUGGACAGAAGGGCAGAGCAA", "note": "[G5A C6U U7A G8U C9A U10G]", "exon inclusion enrichment index": 0.00356},
      {"variant": "AGUUAUAUAAGGGAGCUCCAGCACAGUGAAAUGGACAGAAGGGCAGAGCAA", "note": "[G5A C6U U7A G8U C9A U10A]", "exon inclusion enrichment index": 0.0162},
      {"variant": "AGUUAUAUACGGGAGCUCCAGCACAGUGAAAUGGACAGAAGGGCAGAGCAA", "note": "[G5A C6U U7A G8U C9A U10C]", "exon inclusion enrichment index": 0.4},
      {"variant": "AGUUAUAUAAAGGAGCUCCAGCACAGUGAAAUGGACAGAAGGGCAGAGCAA", "note": "[G5A C6U U7A G8U C9A U10A G11A]", "exon inclusion enrichment index": 0.0538},
      {"variant": "AGUUAUAUAAUGGAGCUCCAGCACAGUGAAAUGGACAGAAGGGCAGAGCAA", "note": "[G5A C6U U7A G8U C9A U10A G11U]", "exon inclusion enrichment index": 0.0948},
      {"variant": "AGUUAUAUAACGGAGCUCCAGCACAGUGAAAUGGACAGAAGGGCAGAGCAA", "note": "[G5A C6U U7A G8U C9A U10A G11C]", "exon inclusion enrichment index": 0.176},
      {"variant": "AGUUACCGGCGGGAGCUCCAGCACAGUGAAAUGGACAGAAGGGCAGAGCAA", "note": "[G5A U7C C9G U10C]", "exon inclusion enrichment index": 2.65},
      {"variant": "AGUUACAGCCGGGAGCUCCAGCACAGUGAAAUGGACAGAAGGGCAGAGCAA", "note": "[G5A U7A U10C]", "exon inclusion enrichment index": 1.84},
      {"variant": "AGUUACAUAUGGGAGCUCCAGCACAGUGAAAUGGACAGAAGGGCAGAGCAA", "note": "[G5A U7A G8U C9A]", "exon inclusion enrichment index": 0.262},
      {"variant": "AGUUAUCACAGGGAGCUCCAGCACAGUGAAAUGGACAGAAGGGCAGAGCAA", "note": "[G5A C6U U7C G8A U10A]", "exon inclusion enrichment index": 0.0761},
      {"variant": "AGUUAUCACCGGGAGCUCCAGCACAGUGAAAUGGACAGAAGGGCAGAGCAA", "note": "[G5A C6U U7C G8A U10C]", "exon inclusion enrichment index": 2.02}
    ]}
  ]
}
